Test results: patent publication US20250197513A1 (University of Texas, published 2025)

T1: recombinant OSMR protein (Sino Biologicals, 11226-H08H), extracellular domain of OSMR (UniProt Q99650 28-740)
T1 construct: extracellular domain; also called OSMR antigen
T1 sequence (looked up): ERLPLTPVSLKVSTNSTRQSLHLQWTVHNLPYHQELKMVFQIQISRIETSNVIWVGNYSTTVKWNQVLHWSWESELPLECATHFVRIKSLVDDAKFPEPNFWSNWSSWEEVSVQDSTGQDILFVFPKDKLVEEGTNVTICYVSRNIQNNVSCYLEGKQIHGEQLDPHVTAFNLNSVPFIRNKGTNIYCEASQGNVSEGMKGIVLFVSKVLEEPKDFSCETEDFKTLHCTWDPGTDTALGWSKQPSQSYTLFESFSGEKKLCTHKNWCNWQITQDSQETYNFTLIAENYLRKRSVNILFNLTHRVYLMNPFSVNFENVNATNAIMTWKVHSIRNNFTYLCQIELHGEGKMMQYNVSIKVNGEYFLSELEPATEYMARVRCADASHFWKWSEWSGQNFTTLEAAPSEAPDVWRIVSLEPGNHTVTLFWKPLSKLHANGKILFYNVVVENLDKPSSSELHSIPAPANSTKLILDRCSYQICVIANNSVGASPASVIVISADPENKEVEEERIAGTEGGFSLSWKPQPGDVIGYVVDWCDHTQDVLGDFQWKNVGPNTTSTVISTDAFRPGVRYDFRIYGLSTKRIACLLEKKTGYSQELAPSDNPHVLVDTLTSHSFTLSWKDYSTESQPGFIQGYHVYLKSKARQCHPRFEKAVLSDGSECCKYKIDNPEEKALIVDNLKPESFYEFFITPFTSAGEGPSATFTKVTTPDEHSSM

B1: H13 monoclonal antibody (antibody, V domains shown)
VH: QVQLVQSGAEVKKPGASVKVSCKVSGYSFSSHGISWVRQAPGQGLEWMGWISAYNGNTNYAQNLQGRVRMTTDTSTNTAHMELRSLRSDDTAVYYCARDQDEANWNNNYYFDYWGQGTLVTVSS
VL: NFMLTQPHSVSESPGKTVTISCTGSSGSIASKYVQWYQQRPGSAPTSVIYEDNQRPSGVPDRFSGSIDRSSNSASLTISGLKTEDEADYHCQSYDSANRVVFGGGTKVTVL
notes: also called H13 mAb
B2: H10 monoclonal antibody (antibody, V domains shown)
VH: QVQLVQSGAEVKKPGASVKVSCKASGYTFTSYYMHWVRQAPGQGLEWMGIINPSGGSTSYAQKFQGRVTMTRDTSTSTVYMELSSLRSEDTAVYYCARGTTYDAFDIWGQGTTVSVSS
VL: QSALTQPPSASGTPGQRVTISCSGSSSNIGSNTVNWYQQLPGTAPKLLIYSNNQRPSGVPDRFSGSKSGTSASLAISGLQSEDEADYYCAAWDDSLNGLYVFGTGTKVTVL
notes: also called H10 mAb
B3: B01 monoclonal antibody (antibody, V domains shown)
VH: QVQLVQSGAEVKKPGASVKVSCKASGYSFTSYFIHWVRQAPGQGLEWMGIINPAGGNTNYAQRFQGRVTMTRDTSTSTVYMELSSLRSDDTAVYYCARDKDYGEGAFDLWGQGTMVSVSS
VL: QSALTQPPSVSGAPGQRVTISCTGSSSNIGAGYDVHWYQQLPGTAPKLLIYGNSNRPSGVPDRFSGSKSGTSASLAITGLQAEDEADYYCQSYDSSLSGWVFGGGTKVTVL
notes: also called B01 mAb
B4: B12 monoclonal antibody (antibody, V domains shown)
VH: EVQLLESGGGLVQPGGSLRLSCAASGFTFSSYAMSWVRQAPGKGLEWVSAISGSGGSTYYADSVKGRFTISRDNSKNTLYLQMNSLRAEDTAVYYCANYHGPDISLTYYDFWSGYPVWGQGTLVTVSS
VL: QSALTQPHSVSESPGKTVTISCTRSSGSIANNHVQWYQQRPGSAPIIVIYEDNQRPSGVPDRFSGSIDSSSNSASLTLSGLKTEDEAAYYCQSYDDNNWVFGGGTKVTVL
notes: also called B12 mAb
B5: B04 monoclonal antibody (antibody, V domains shown)
VH: EVQLVQSGGGVVQPGRSLRLSCAASGFTFSSYAMHWVRQAPGKGLEWVAVISYDGSNKYYADSVKGRFTISRDNSKNTLYLQMNSLRAEDTAVYYCARESGVSGDYYYYGMDVWGQGTMVTVSS
VL: AIQLTQSPSSLSASVGDRVTITCQASQDIKNYLNWYQQRPGKAPKLLIYDASNLETGVPSRFSGGGSGTDFTFTISSLQPEDIATYYCQHYDSLPITFGQGTRLEIK
notes: also called B04 mAb
B6: B05 monoclonal antibody (antibody, V domains shown)
VH: QVQLVESGGGVVRPGGSLRLSCAASGFTFDDYGMSWVRQAPGKGLEWVSGINWNGGSTGYADSVKGRFTISRDNAKNSLYLQMNSLRAEDTALYHCARVNYDSSGLRGAFDIWGQGTTVTVSS
VL: AIQLTQSPSSLSASVGDRVTITCQASQDISNYLNWYQQKPGKAPKLLIYDASNLETGVPSRFSGSGSGTDFTFTISSLQPEDIATYYCQQYDNLPTFGQGTRLEIK
notes: also called B05 mAb
B7: B03 monoclonal antibody (antibody, V domains shown)
VH: QVQLVESGGGVVRPGGSLRLSCAASGFTFDDYGMSWVRQAPGKGLEWVSGINWNGGSTGYADSVKGRFTISRDNAKNSLYLQMNSLRAEDTALYHCARVNYDSSGLRGAFDIWGQGTMVIVSS
VL: DIVMTQSPSSLSASVGDRVTITCQASQDISNYLNWYQQKPGKAPKLLIYDASNLETGVPSRFSGSGSGTDFTFTISSLQPEDIATYYCQQYDNLPITFGQGTRLEIK
notes: also called B03 mAb
B8: B16 monoclonal antibody (antibody, V domains shown)
VH: QVELVESGGGVVRPGGSLRLSCAASGFTFDDYGMSWVRQAPGKGLEWVSGINWNGGSTGYADSVKGRFTISRDNAKNSLYLQMNSLRAEDTALYHCARVNYDSSGLRGAFDIWGQGTTVTVSS
VL: DVQMTQSPSSLSASVGDRVTITCQASQDISNYLNWYQQKPGKAPKLLIYDASNLETGVPSRFSGSGSGTDFTFTISSLQPEDIATYYCQQYDNLPTFGQGTRLEIK
notes: also called B016; B16 mAb
B9: H14 monoclonal antibody (antibody, V domains shown)
VH: QVQLVQSGAEVKKPGSSVKVSCKASGGTFSSYAISWVRQAPGQGLEWMGGIIPIFGTANYAQKFQGRVTITADESTSTAYMELSSLRSEDTAVYYCAREATPFMILGAFDIWGQGTMVIVSS
VL: not shown
notes: also called H14 mAb
B10: B19 monoclonal antibody (antibody, V domains shown)
VH: QVELVESGGGLVQPGRSLRLSCAASGFTFDDYAMHWVRQAPGKGLEWVSGISWNSGSIGYADSVKGRFTISRDNAKNSLYLQMNSLRAEDTALYYCAKDIGVYYYGMDVWGQGTTVSVSS
VL: QSALTQPPSASGTPGQKVTISCSGSSSNIGSSPVNWYQQFPGPAPKLLIHSNNQRPSGVPDRFSGSKSGTSASLAISGLQSDDEADYYCAAWDDSLNAYVFGTGTKVTVL
notes: also called B19 mAb
B11: B08 monoclonal antibody (antibody, V domains shown)
VH: QVQLVQSGGGLVKPGGSLRLSCAASGFTFSSYSMNWVRQAPGKGLEWVSSISSSSSYIYYADSVKGRFTISRDNAKNSLYLQMNSLRAEDTAVYYCARDIALPYYGMDVWGQGTMVTVSS
VL: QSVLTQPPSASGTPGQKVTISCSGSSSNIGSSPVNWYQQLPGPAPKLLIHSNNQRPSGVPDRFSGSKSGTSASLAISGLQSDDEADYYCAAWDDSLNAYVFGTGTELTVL
notes: also called B08 mAb
B12: B10 monoclonal antibody (antibody, V domains shown)
VH: QVQLVQSGAEVKKPGASVKVSCKASGYTFTSYYMHWVRQAPGQGLEWMGIINPSGGSTSYAQKFQGRVTMTRDTSTSTVYMELSSLRSEDTAVYYCARDKAHDSSGYYDAFDIWGQGTTVTVSS
VL: QSALTQPPSASGTPGQRVTISCSGSGSNIGSNTVNWYQQLPGTAPRLLIYRNNQRPSGVPDRFSGSKSGTSASLAISGLESEDEADYFCATWDDSLNDYVFATGTQLTVL
notes: also called B010; B10 mAb
B13: H09 monoclonal antibody (antibody, V domains shown)
VH: EVQLVQSGAEVKKPGASVKVSCKASGYTFTGYYMHWVRQAPGHGLEWMGWINPNSGGTNYAQKFQGRVTMTRDTSISTAYMELSGLRSDDTAVYYCARDKGAWSGSYPGYNWFDPWGQGTLVTVSS
VL: QAVVTQPPSASGTPGQRVTISCSGSSSTIGTNPVNWYRHLPGTAPKLLIYSNNQRPSGVPDRVSGSKSGTSASLAISGLQSEDEADYYCATLDDSLNGYVFGTGTKVTVL
notes: also called H09 mAb
B14: B06 monoclonal antibody (antibody, V domains shown)
VH: QVQLVESGGGLVQPGRSLRLSCAASGFTFDDYAMHWVRQAPGKGLEWVSGISWNSGSIGYADSVKGRFTISRDNAKNSLYLQMNSLRAEDTALYYCAKDITSSGWYWFDYWGQGTLVTVSS
VL: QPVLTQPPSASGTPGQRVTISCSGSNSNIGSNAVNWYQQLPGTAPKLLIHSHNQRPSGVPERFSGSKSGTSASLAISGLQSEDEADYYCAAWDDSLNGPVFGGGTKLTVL
notes: also called B06 mAb
B15: B09 monoclonal antibody (antibody, V domains shown)
VH: QVQLVQSGAEVKKPGSSVKVSCKTSGGTFSSYAISWVRQAPGQGLEWMGGIIPISGTANYAQKLQGRVTITADESTSTAYMELSSLRSEDTAVYYCGRGDYCNGGSCSYTNYYGMDVWGQGTMVTVSS
VL: QAVVTQPPSASGTPGQRSTISCSGGSANIGSNSVHWYQQFPGTAPKLLIFNNNQRPSGVPDRFSGSKSGTSASLAISGLQSEDEADYFCAAWDDSLKGPVFGGGTKVTVL
notes: also called B09 mAb
B16: B13 monoclonal antibody (antibody, V domains shown)
VH: EVQLVQSGAEVKKPGSSVKVSCKASGGTFSSYAITWVRQAPGQGLEWMGGIIPIVGTANYAQKFQGRLTITADESTSTAYMELSSLRSEDTAVYYCARGDYCSGGSCSYTNYYGMDVWGQGTTVTVSS
VL: not shown
notes: also called B13 mAb
B17: H12 monoclonal antibody (antibody, V domains shown)
VH: EVQLVQSGAEVKKPGSSVKVSCKTSGGTFSSYAISWVRQAPGQGLEWMGGIIPISGTANYPQKLQGRVTITADESTSTAYMELSSLRSEDTAMYYCARGDYCNGGSCSYTNYYGMDVWGQGTTVIVSS
VL: QSALTQPPSVSVAPGKTAMITCGGTNIRSQNVHWYQQKPGQAPVLVIYWDSSRPSGIPERISGSNSGSTATLTISRVEAGDEADYYCQVWDATRDHVVFGGGTKVTVL
notes: also called H12 mAb
B18: H16 monoclonal antibody (antibody, V domains shown)
VH: QVQLLQSGAEVKKPGSSVKVSCKASGGTFSSYAISWVRQAPGQGLEWMGGIIPIFGTANYAQKFQGRVTITADESTSTAYMELSSLRSEDTAVYYCASSYYGSGTTWFDPWGQGTLVTVSS
VL: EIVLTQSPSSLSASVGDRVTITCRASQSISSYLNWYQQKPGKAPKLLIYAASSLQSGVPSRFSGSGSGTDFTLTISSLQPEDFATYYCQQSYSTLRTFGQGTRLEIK
notes: also called H16 mAb
B19: H11 monoclonal antibody (antibody, V domains shown)
VH: EVQLVQSGPEVRKPGASVQISCKASGYTFTTSYIHWVRQAPGQGLEWLGLVNPNDGSTTYTQNFQGRVTMTSDTSTSTVYMELSRVTYADTAVYYCAKDIRDYVWGTYRYESAFDIWGQGTTVTVSS
VL: QAVVTQPPSVSVSPGQTASITCSGDKLGDKYVSWYQQKPGQPPILVMYQDNRRPSGIPERFSGSNSGNTATLTISGTQAMDEADYYCQTWDSSTASYVFGTGTKVTVL
notes: also called H11 mAb
B20: B17 monoclonal antibody (antibody, V domains shown)
VH: QVELQESGPGLVQPSGTLSLTCAVSGGSMGSSNWWSWVRQPPGKGLEWIGEVYHTGSTNYNPSLRSRVTISVDKSKKQFSLELTSVTAADTAVYFCARDLTVTGSFDIWGQGTMVTVSS
VL: QAVVTQPRSVSGSPGQSVTISCTGSSSDVGAYNYVSWYQQHPGKAPKLIISDVSDWPSGVPDRFSGSKSGNTASLTISGLQADDEADYYCFSYAGNYNWVFGGGTKLTVL
notes: also called B17 mAb
B21: B02 monoclonal antibody (antibody, V domains shown)
VH: QVELQESGSGLVKPSQTLSLTCAVSGGSISSGGYSWSWIRQPPGKGLEWIGYIYHSGSTYYNPSLKSRVTISVDRSKNQFSLKLSSVTAADTAVYYCARELGYCSSTSCPWGAFDIWGQGTLVSVSS
VL: QAVVTQPPSVSAAPGQKVTISCSGSSSNIGNNYVSWYQQLPGTAPKLLIYDNNKRPSGIPDRFSGSKSGTSATLGITGLQTGDEADYYCGTWDSSLSAVVFGGGTQLTVL
notes: also called B02 mAb

The binders below were run against T1, recombinant OSMR protein (Sino …) (assay: screening of full-length IgG1 clones on recombinant OSMR extracellular domain).

Binding result, binds:
B1, B2, B3, B4, B5, B6, B7, B8, B9, B10, B11, B12, B13, B14, B15, B16, B17, B18, B19, B20, B21
